{"source": "paper PMC10888979", "about": "(bioRxiv, 2024)", "binders": {"B1": {"name": "VHH_(RD7-04), construct for co-crystallization (VHH)", "VHH": "QVQLVESGGGLVQPGGSLRLSCVASGFTFKNFYMGWVRQAPDKGLEWVATINSGGEIQSYADSVKGRFTISRDNAKNTLYLQMNNLRPEDTAVYYCSKQSSTPAKGQGTQVTVSS"}}, "target": "Mat1 (230-309) (human, UniProt P51948)", "sequence (P51948 230-309)": "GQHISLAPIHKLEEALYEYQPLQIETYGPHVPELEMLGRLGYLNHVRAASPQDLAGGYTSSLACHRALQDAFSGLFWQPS", "test": "crystal structure", "data": [{"binder": "B1", "values": [{"measurement": "binding result", "value": "binds"}]}]}
